The values that follow come from the Immune Epitope Database (IEDB).

One assay concerns the target HLA-C*06:02. Briefly: IEDB peptide-MHC binding, purified MHC/competitive/fluorescence; filed as Kd, often an IC50 or EC50 that approximates it; ≥ and ≤ were set here for values at or beyond the usual limits of such assays. The following applies: source organism: Mus musculus.
The next assay concerns the target HLA-B*45:06. Described as above. The following applies: source organism: Mus musculus.
The target in a further assay is HLA-B*15:42. The assay is described as above. Conditions: source organism: Mus musculus.
The target of assay [1] is HLA-B*73:01. The description is as above. The following applies: source organism: Mus musculus.
Another assay has as its target HLA-B*27:20. The assay is described as above. Conditions: source organism: Mus musculus.
The next assay deals with HLA-C*07:02. Nature of the assay: IEDB peptide-MHC binding, purified MHC/direct/fluorescence; filed as Kd, often an IC50 or EC50 that approximates it; ≥ and ≤ were set here for values at or beyond the usual limits of such assays. The following applies: source organism: Mus musculus.
Assay [2] concerns the target HLA-B*27:05. Briefly: IEDB peptide-MHC binding, purified MHC/competitive/fluorescence; filed as Kd, often an IC50 or EC50 that approximates it; ≥ and ≤ were set here for values at or beyond the usual limits of such assays. The following applies: source organism: Mycobacterium tuberculosis variant bovis BCG str. Pasteur 1173P2.
For assay [3], the target named is HLA-B*73:01. Briefly: IEDB peptide-MHC binding, purified MHC/direct/fluorescence; filed as Kd, often an IC50 or EC50 that approximates it; ≥ and ≤ were set here for values at or beyond the usual limits of such assays.
Assay [4] has as its target HLA-B*48:01. Described as above.
Assay [5] deals with HLA-B*27:05. The description is as above.
In assay [6] the target is HLA-B*15:01. Briefly: IEDB peptide-MHC binding, purified MHC/competitive/fluorescence; filed as Kd, often an IC50 or EC50 that approximates it; ≥ and ≤ were set here for values at or beyond the usual limits of such assays. The following applies: source organism: Ectromelia virus.
For assay [7], the target named is HLA-B*08:01. The assay is described as above. The following applies: source organism: Ectromelia virus.
In assay [8] the target is HLA-A*02:01. The description is as above.
For a further assay, the target named is HLA-B*15:09. Described as above. The following applies: source organism: Ectromelia virus.
The target in another assay is HLA-B*51:01. Nature of the assay: IEDB peptide-MHC binding, purified MHC/direct/fluorescence; filed as Kd, often an IC50 or EC50 that approximates it; ≥ and ≤ were set here for values at or beyond the usual limits of such assays. The following applies: source organism: Camelpox virus CMS.
In a further assay the target is HLA-A*31:01. The assay is described as above.
The next assay addresses HLA-A*26:01. The assay is described as above.
A further assay concerns the target HLA-A*69:01. Described as above.
The next assay deals with HLA-A*11:01. The description is as above.
A further assay deals with HLA-B*40:01. Described as above.
Another assay has as its target HLA-B*18:01. The description is as above.
The next assay addresses HLA-B*57:01. Described as above.
A further assay addresses HLA-A*01:01. Described as above.
For a further assay, the target named is HLA-B*38:01. Described as above. Conditions: source organism: Variola virus.
The target in the next assay is HLA-B*58:01. The assay is described as above.
A further assay addresses HLA-A*03:01. The assay is described as above.
In assay [9] the target is HLA-B*07:02. Described as above.
For assay [10], the target named is HLA-B*15:17. The description is as above. Conditions: source organism: Camelpox virus CMS.
A further assay addresses HLA-C*04:01. The assay is described as above. Conditions: source organism: Leishmania major strain Friedlin.
Assay [11] has as its target HLA-B*15:01. Described as above.
Assay [12] has as its target HLA-B*08:01. Described as above.
Assay [13] concerns the target HLA-A*02:01. The description is as above. Conditions: source organism: Brucella abortus 2308.
The target of another assay is HLA-B*44:02. The assay is described as above. The following applies: source organism: Brucella abortus 2308.
A further assay deals with HLA-A*30:01. Nature of the assay: IEDB peptide-MHC binding, purified MHC/competitive/fluorescence; filed as Kd, often an IC50 or EC50 that approximates it; ≥ and ≤ were set here for values at or beyond the usual limits of such assays. The following applies: source organism: Orthomarburgvirus marburgense.
Assay [14] concerns the target HLA-B*48:01. Described as above. Conditions: source organism: Orthomarburgvirus marburgense.
The next assay addresses HLA-A*68:02. The description is as above. Conditions: source organism: Orthomarburgvirus marburgense.
Assay [15] concerns the target HLA-B*07:02. The assay is described as above. Conditions: source organism: Orthomarburgvirus marburgense.
The target of assay [16] is HLA-B*15:17. Described as above. The following applies: source organism: Orthomarburgvirus marburgense.
Another assay has as its target HLA-B*08:02. Briefly: IEDB peptide-MHC binding, purified MHC/direct/fluorescence; filed as Kd, often an IC50 or EC50 that approximates it; ≥ and ≤ were set here for values at or beyond the usual limits of such assays. The following applies: source organism: Ravn virus - Ravn, Kenya, 1987.
Another assay deals with HLA-B*39:01. The description is as above. Conditions: source organism: Marburg virus - Musoke, Kenya, 1980.
The target of the next assay is HLA-A*26:03. Described as above. Conditions: source organism: Ravn virus - Ravn, Kenya, 1987.
For the next assay, the target named is HLA-B*46:01. The description is as above. The following applies: source organism: Marburg virus - Musoke, Kenya, 1980.
Setting [17] is: source organism: Toxoplasma gondii.
Setting [18] is: source organism: Camelpox virus CMS.
Setting [19] is: source organism: Brucella abortus 2308.
Where [20] appears, read: source organism: Brucella melitensis.
[21] abbreviates: source organism: Marburg virus - Musoke, Kenya, 1980.

Where only a bound is given, the exact number is not on record here.

In the case of FRMLAWHVL, the Kd with HLA-C*06:02 is 0.0038 µM; with HLA-B*45:06 it was at least 5 µM; in the assay with HLA-B*15:42, at least 5 µM; with HLA-B*73:01 [1] it was 0.689 µM; in the assay with HLA-B*27:20, 0.0002 µM; in the assay with HLA-C*07:02, 0.03 µM.

GRAVSSATF displayed a dissociation constant (Kd) with HLA-B*27:05 [2] of 0.141 µM.

WRMVVRASF: the Kd with HLA-B*73:01 [3] (setting [17]) is 1.34 µM; in the assay with HLA-B*48:01 [4] (setting [17]), at least 20 µM; in the assay with HLA-B*27:05 [5] (setting [17]) it was 0.008 µM.

In the case of VIARTHTAL, the Kd was 0.785 µM with HLA-B*15:01 [6]; 0.0518 µM in the assay with HLA-B*08:01 [7]; at least 20 µM with HLA-A*02:01 [8] (source organism: Ectromelia virus); at least 20 µM in the assay with HLA-B*15:09; at least 20 µM with HLA-B*51:01; at least 20 µM with HLA-A*31:01 (setting [18]). In addition, the Kd in the assay with HLA-A*26:01 (source organism: Variola virus), with HLA-B*48:01 [4] (setting [18]), with HLA-A*69:01 (setting [18]), with HLA-A*11:01 (setting [18]), with HLA-B*40:01 (setting [18]) and in the assay with HLA-B*18:01 (setting [18]) was at least 20 µM each time. Besides, the Kd with HLA-B*57:01 (setting [18]), with HLA-A*01:01 (setting [18]), with HLA-B*38:01, with HLA-B*58:01 (setting [18]), with HLA-B*27:05 [5] (setting [18]) and with HLA-A*03:01 (setting [18]) was at least 20 µM in each case. Also, the results for the Kd with HLA-B*07:02 [9] (setting [18]) and in the assay with HLA-B*15:17 [10] were 0.0583 µM and at least 20 µM, respectively.

Take TRDPNLAYI: the Kd with HLA-C*04:01 is at least 20 µM.

Turning to KRASGDPYF, the Kd with HLA-A*31:01 (setting [19]), with HLA-B*15:01 [11] (setting [19]), with HLA-A*26:01 (setting [19]), with HLA-B*73:01 [3] (source organism: Brucella suis ATCC 23445), with HLA-A*69:01 (setting [19]) and in the assay with HLA-A*11:01 (setting [19]) was at least 20 µM throughout. Moreover, the Kd with HLA-B*40:01 (setting [19]) was at least 20 µM; with HLA-B*08:01 [12] (setting [19]), at least 20 µM; in the assay with HLA-A*01:01 (setting [19]), at least 20 µM; in the assay with HLA-A*02:01 [13], at least 20 µM; in the assay with HLA-B*58:01 (setting [20]), 5.93 µM; with HLA-B*27:05 [5] (setting [20]) it was 2.79 µM. In addition, the Kd with HLA-B*44:02, in the assay with HLA-A*03:01 (setting [19]) and in the assay with HLA-B*07:02 [9] (setting [19]) was at least 20 µM throughout.

On to YHLGGIEGL, for which the Kd in the assay with HLA-A*30:01 was at least 20 µM; in the assay with HLA-B*48:01 [14], 0.155 µM; with HLA-A*02:01 [8] (source organism: Orthomarburgvirus marburgense), 0.007 µM; with HLA-A*68:02 it was 1.44 µM; with HLA-B*07:02 [15] it was at least 20 µM; with HLA-B*15:17 [16], at least 20 µM. Further, the Kd was at least 20 µM in the assay with HLA-B*08:02; at least 20 µM in the assay with HLA-B*15:01 [11] (setting [21]); 2.41 µM in the assay with HLA-A*69:01 (setting [21]); at least 20 µM in the assay with HLA-B*40:01 (setting [21]); at least 20 µM with HLA-B*08:01 [12] (source organism: Ravn virus - Ravn, Kenya, 1987); at least 20 µM with HLA-B*18:01 (setting [21]). The Kd with HLA-B*57:01 (setting [21]) is at least 20 µM; in the assay with HLA-A*01:01 (setting [21]), at least 20 µM; in the assay with HLA-B*58:01 (setting [21]) it was at least 20 µM; in the assay with HLA-B*39:01, 0.0403 µM; with HLA-B*27:05 [5] (setting [21]) it was at least 20 µM; with HLA-A*26:03, at least 20 µM. Further, in the assay with HLA-B*46:01, the dissociation constant (Kd) was at least 20 µM.
